Assay results reported in the nanobody polyreactivity screen of Harvey et al. (2022).

Assay: yeast display, Sf9 membrane polyspecificity reagent, FACS + sequencing; frameworks hold sequencing errors
Procedure, shortened: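 After 36–48 hours of galactose induction, yeast (Saccharomyces cerevisiae BJ5465) displaying a synthetic nanobody library were stained at 4 °C for 1 hour with 10% biotinylated, detergent-solubilized Sf9 membrane reagent. Streptavidin microbeads enriched the stained cells before FACS sorting into low and high (top ~1%) gates on anti-HA and streptavidin fluorescence. Each clone's polyreactivity label reflects its gate of origin.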

Sequence | polyreactivity (PSR sort gate)
QVQLVESGGGLVQAGGSLRLSCAASGTFVKYARGWYRQAPGKERELVATITGSGGSTYYADSVKGRFTISRDNAKNTVYLQMNSLKPEDTAVYYCAAREGYVFYKYDYWGQGTQVTVSS | low polyreactivity
QFQLVESGGGLVQAGGSLRLSCAASGSTFRTYAMGWYRQAPRKERELVADITWRGGSKYYADSVKGRFTISRDNAKNTVYSQMNSLKPEDPAVYYCATDRGPEVVLYDYWGQGTQVTVSS | low polyreactivity
QVQLVESGGGLVQAGGSLRLSCAASGSIFNLYTMGWYRQAPGKEMELVAVITGGGSTYYADSVKGRFTISRDNAKNTVYLQMNSLKPADTAVYYCAAKGPFYKSSRTGDYWGQGTQVTVSS | low polyreactivity
QVQLVESGGGLVQAGGSLRLSCAASGSIFSANTMGWYRQEPGKEREFVAGITTSAGRTYYADSVKGRFTISRDNAKNTVYLQMNSLKPEDTAVYYCAARVWRSYNYWGQGTQVTVSS | high polyreactivity
QVQLVESGGGSVQAGGSLRLSCAASGFTIRTYAMGWYRQAPGKESELVAAITSSGSSTYYAYSVKGRFTISRDNAKNTVYLQMNSLKPEDTAVYYCAADAPRSYRFGYWGQGTQVTVSS | high polyreactivity
QVQLVESGGGLVQAGGSLRLSCAASGRTFDLNAMGWYRQAPGKERELVAAISFSVADTYYADSVKGRFTISRDNAKNTVYLQMNSLKPEDTAVYYCAADSELGSLSGESDYWGQGTQVTVSS | low polyreactivity
QVQLVESGGGLVQAGGSLRLSCAASGFTFNYAMGWYTQAPGKERELVAAISSAGTTYYADSVKGRFTISRDNAKNTVYLQMNSLKPEDTAVYYCAALARPKQDRYRYYYWGQGTQVTVSS | high polyreactivity
QVQLVESGGGLVQAGGSLRLSCAASGRTFSHNTMGWYRQAPGKERELVAAITGSGASTYYADSVKGRFTISRDNAKNTVYLQMNSLKPEDTAVYYCAKVSRQSWYEYDSWGQVTQVTVSS | low polyreactivity
QVQLVESGGGLVQAGGSLPLSCAASGRIYGGNVMGWYRQAPGKERELVAAISKRGDSTYYADSVKGRFTISRDNAKNTVYLQMNSLKPEDTAVYYCAAVRRGDRGTDMDYWGQGTQVTVSS | high polyreactivity
QDQLVESGGGLVQAGGSLRLSCAASGFIFARYVMGWYRPAPGKERELVASITGSGVSTYYADSVKGRFTISRDNAKNTVYLQMNSLKPEDTAVYYCATRVYRRYYLNSWYNYWGQGTQVTVSS | high polyreactivity
QVQLVESVGGLDQAGGRLRLSCAASGFTIRPYVRRAYRQAPGTERELVAGISTGGSTYYADSVKGRFTISRDNAQNTVYLQMNRLKPEDTAVYDCAKRGKQYRKMNYWGQGTQVTVSS | high polyreactivity
QVQLVESGGGLVQAGGSLRLSCAASGRIFYPYAMGWYRQAPGKERELVAAISLSGGSTLYADSVKGRFTISRDNAKNTVYLQMNSLKPEDTAVYYCAADQRTRYQTRQYYYWGQGTQVTVSS | low polyreactivity
QVQLVESGGGLVQAGGSLRLSCAASGSISGYYDMGWYRQAPGKERELVAASSWNGADTYYADSVKGRFTISRDNAKNTVYLQMNSLKPEDTAVYYCAAERENGDHYRYYYWGQGTQVNVSS | low polyreactivity
QVQLVESGGGLVQEGGSLRLSCAASGLIFRYYGMGWYRQAPGKERELVAAIRWSAGSTYYADSVKGRFTNSRDYAKITVYFQMNSLKPEDTAVYYCAVAIGYVYKPYYYWGQGTQVTVSS | high polyreactivity
QVQLVESGGGLVQAGGSLRLSCAASGFTFFTYAMGWYRQAPGNERELVAAISSSGDRTYYADSVKGRFTISRDNAKNTVYLQMNSLKPEDTAVYYCAVYKYYHFYYWGQGTQVTVSS | high polyreactivity
QVQLVESGGGLVQAGGSLRLSCAASGFTFRVYAMGWYRQAPGKERDLVAPISLRGDRTYYADSVKGRFTISRDYAKNTEYLQMNRLKPEDTAVYYCHAYASYQISQDDYDYWGQGTQVTVSS | high polyreactivity
QVQLVESGGGLVQAGGSLRLSCAASGIIFESNVMGWYRQAPGKERELVAAISRSGSRTYYADSVKGRFTISRDNAKNTVYLQMNSLKPEDTAVYYCATDSHTADEYEHWGQGTQVTVSS | high polyreactivity
QVQLVESGGGLVHAGGSLLLSCSASGSIFTVNAMGWYRQAPGKERELVAAISSGGSTHYADSVKGRFTISRDNAKNTVYLQMISLKPEDTAVYYCAAVYVPYYGYYTRYDYWGQGTQVTVSS | low polyreactivity
QVQLVESGGGLVQAGGSLRLICAASGMTFYSYAMGWYRQAPGKERELVAAISATGGRTYYADSEKGRFTISRDNAKNTVYLQMNSLKPEDTEVYYCAAKSSYEYGYWGQGTQVTVSS | high polyreactivity
QVQLVESGGGLVQAGGSLRLSCAASGRIFHGNAMGWYRPAPGKERELVAAITSGGRTFYADSVKGRFTISRDNAKNTVYLQMNRLKPEDTAVYYCNAPSIAGYAEYNSHDYWGQGTQVTVSS | high polyreactivity
QVQLVESGGGLVQAGGSLRLSCAASGSSVSYYAMGWYRQAPGKERELVAAISDNGDSTYYADSVKGRFTISRDNAKNTVYLQMNSLKPEDTAVYYCDKRYRSYGKSSKRRYYYWGQGTQVTVSS | low polyreactivity
QVQLQESGGGLVQAGGSLRLSCAASCTISQEDWMGWYRQAPCKEREFVASIGLGSNTNYADSLKGRFTISRDNAKNTVYLKMNSLKPEYTAVYYCASEENLAYYFKYYYWGQGTQVTVSS | low polyreactivity

Sequence | polyreactivity (PSR sort gate)
QVQVVESGGGLDQAGGSLRLSCAASGSIFQVYSMGWYRQAPGQERALVAAITWAAGSTYADSVKGRFTISRDNAKNTVYLQLKSLKPDDTAVYYCAAYPYVGYVTSSAYDYWGQGTQVTVSS | low polyreactivity
QVLLVESGGGLVQAGGSLRLSCAASGITFGRNTMGWYRQAPGKDRELVAAIDSGGNTYADSVKGRFTISRDNAKNTVSLQMNSRKPEDTAVDYCAVDGGEFSSYGYWGQGTQVTVSS | low polyreactivity
QFQLVESVGGLVQAGGSLRLSCAASGTTIPSYAMGWYRQAPGKERELVASITYSDGTTRYADSVKGRFTISRDNAKNTVYLQMNSLKPEDTAVYYCNAVYYREGMDYWGQGTQVTVSS | low polyreactivity
QVQLVESGGGLVQAGGSLRISCAASGFTFSLNGMGWYRQAPGKEREMVAAIRSGGSTNYADSVKGRFTISLDNAKYTVYIQMNSLKPEDTAVYYCATDIHSVHNNRDKHDYDYLGQGTQVTVSS | low polyreactivity
QVQLVESGGGLVQAGGSLRLSCAASGLTFQYNAMGWYRQAPGKERELVASINSGGSTDYADSVKGRFTISRDNAKNTVYLQMNRLKQEDTAVYYCATSGYWYSASYGYEYWGQGTQVTLSS | low polyreactivity
QVQLVESGGGLVQAGGSLRLSCAASGSTFDDYTMGWYRQAPGKERELLAAISSDSSTNYADSVKGRFTISRDNAKNTVYLQMNSLKPEDTAVYYCATRSRTTKIVRWPGMYYWGQGTQVTVSS | high polyreactivity
QVQLVESGGGLVQAGGSLRLSCAASGSIFGAYAMGWYRQAPGKERELVAAINYGGATTYYADSVKGRFTISRDNAKNTVYLQMNSLKPEDTAVYYCAADYLYAYGDVAVVYGWYAYYYWGQGTQVTVSS | low polyreactivity
QVQLVESGGGLVQAGGSLRLSCAASGNTFYGYAMGWYRQAPGKERDLVATITGSGGDTYYADSVKGRFTISRDNAKNTVYLKMNSLKPEDTAVYYCNAVEYYGGYPGTQYYYLAYNYWGQGTQVTVSS | low polyreactivity
QVQLVESGGGLVQAGGSLRLSCASSGFTFGYYTKGWYRQAPGKERELVAAITSGGGTYYADSVKGRFTISRDNAKNTVYLQMKSLKPEDTAVYYCATTPGLYKVSSRYGYWGQGTQVTVSS | high polyreactivity
QVQLVESGGGLVQAGGSLRLSCAASGFTFFYYVMGWYRQAPGKERELVAAISQHGGSTYYADSVKGRFTISRDNAKNTVYLQMNSLKPEDTAVYYSAASPVVNRRGTYGYWGQGTQVTVSS | high polyreactivity
QVQLLESGGGLVQAGGSLRLSCAASGSTFPRYVMGWYRQAPGKERELVAAISSSSGRTFYADSVKGRFTISRDNAKNTVYLQMNSLKPEDTSVYYCAARTSFNVHYWGQGTQVTVSS | high polyreactivity
QVQLVESGGGLVQAGGSLRLSCAASGLIFYSYAMGWYRQAPGKERELVAAISKRGGSTYYADSVKGRFTISRDNAKNTVYLQMNSLKPEDTAVYYCAAVIHGSSQYYGGTYGRYYWGQGTQVTVSS | high polyreactivity
PVQLVESGGGLVQAGGSLRLSCAASGSTFTSNAMGWYRQAPGKERELVAAIDRNGGRTYYADSVNGRFTISRDNAKNTVYLQMNSMKPEDTEVYYCAVLSKYRRTFGSWGQGTLVTVSS | high polyreactivity
QDQLVESGGGLLQAGGSLSLSCAASGFTIYGYAMVWYRQAPGKERELVAAITNSGGRTYYADSVKGRFTISRDNAKNSVYLQMKSLKPEFTAVYFCAVDDLRGYDYWGQGTQVTVSS | low polyreactivity
QVQHVESGGGLVQAGGSLLLSSAASGRTFLVNAMGWNRQAPGKEREFVAAITSRSGRTNYADSVKGRFTISRDTAKNNVYLQMNSLKPEDTAVYYCNAEGYTVKYWYSRYDYWGQGTQVTVSS | high polyreactivity
QVQLVESVGGLVQAGGSLRLSCSASGSIIYSYAMGWYRQAPGKERELVADITTGGGSTYYADSVKGRFTISRDNAKNTVYLQMNSLKPEDTAVYYCAAEQDTVWFLWIVDYCGQGTQVTVSS | low polyreactivity
QVQLVESGGGLVQAGGSLRLSCAASGRTFYVYAMGWYRQAPGKERELVAAISADGGRTYYADSVKGRFTISRDNAKNTVYLQMNSLKPEDTAVYYCAAWRHTLGDYWGQGTQVNVSS | high polyreactivity
QVQLVESGGGLVQAGGSLRLSCAASGRTFWVYAMGWYRQAPGKERELVAAINNGGSTTYADSVKGRFTISRDNAKNTVYLQMNSLKPEDTAVYYCAADSVKQVRYGNVGHDYWGQGTQVTVSS | low polyreactivity
QVQLVESGGGLVQAGGSHRLTCAASGSTFFAYAIGCYRPAPGTERELVAAISSRGGRTYYADSVKGRFTISRDNAQNTVYLQMNSLKPEDTAVYYCAVGPGLAQSYDYWGQGTQVTVSS | high polyreactivity
QVQLVESGGGLVQAGGSLRLSCAASGFTFPWNVMGGYRQAPGKERELVAAITYDGGGTYADSVKGRFTISRDNAKNTVYLQMNSLKPEDTAVYYCNADLIYGEEYDYWGQGTQVTVSS | low polyreactivity
QVQLVESGGGLVQAGGSLRLSCAASGRTIRYYTMGWYRQAPGKETELVATITGTGSTNYADSVKGRFTISRDNAKNTVYFQMNSLKPEDTEVYYCNARWDFVGTWRIYNYWGQGTQVTVSS | high polyreactivity
